± gives the standard deviation.
Experiment: protein stability index of a GFP-peptide fusion (GPS, HEK-293T) (PSI 1-6); higher = more stable
Details: c terminus: a fixed tail appended
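Also: 24-mer peptide tiles fused after GFP, lentivirally expressed, FACS-sorted into six equal bins by GFP/DsRed ratio, decoded by Illumina sequencing, PSI is the read-weighted mean bin number.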

TRSCSSASSRSQQSSKRSSRSVED [CLK3]
protein stability index (treatment: DMSO): 5.047 ± 0.044 | protein stability index (treatment: MLN4924 1 uM, 8 h): 5.02 ± 0.22

DTELLGQATLPVGSPSRPLSRRQL [C2CD2L]
protein stability index (treatment: DMSO): 4.74 ± 0.18 | protein stability index (treatment: MLN4924 1 uM, 8 h): 4.81 ± 0.15

DKRRDLAHLAAEVEGKCLQSGFEM [TRIM39]
protein stability index (treatment: DMSO): 3.97 ± 0.18 | protein stability index (treatment: MLN4924 1 uM, 8 h): 4.03 ± 0.36

ECTQMDHLGCMHYTVRAPVGVAGL [ALDH8A1]
protein stability index (treatment: DMSO): 2.51 ± 0.37 | protein stability index (treatment: MLN4924 1 uM, 8 h): 2.68 ± 0.36

GALPVGSNLTSNLASLVSQGMIQL [RETREG3]
protein stability index (treatment: DMSO): 2.21 ± 0.24 | protein stability index (treatment: MLN4924 1 uM, 8 h): 2.46 ± 0.16

RIYVLGGGTSWTAYSLNKIHAYNL [KLHDC10]
protein stability index (treatment: DMSO): 2.42 ± 0.41 | protein stability index (treatment: MLN4924 1 uM, 8 h): 2.61 ± 0.67

ARQETKEMARKVIEHCSNFKEENM [ZER1]
protein stability index (treatment: DMSO): 4.74 ± 0.23 | protein stability index (treatment: MLN4924 1 uM, 8 h): 4.57 ± 0.45

TSIGMPSLMYRSPPGAEEPQAPPA [RETREG3]
protein stability index (treatment: DMSO): 5.12 ± 0.12 | protein stability index (treatment: MLN4924 1 uM, 8 h): 4.92 ± 0.07

EESEPGTLVGNVAQDLGLKMTDLL [PCDHGC5]
protein stability index (treatment: DMSO): 4.34 ± 0.081 | protein stability index (treatment: MLN4924 1 uM, 8 h): 4.29 ± 0.55

HHSRGNTNKFYMLDSRSTDRVLQW [KLHDC2]
protein stability index (treatment: DMSO): 2.65 ± 0.39 | protein stability index (treatment: MLN4924 1 uM, 8 h): 2.72 ± 0.19

SPSKSFWTRITCAEEGWSPTPKCL [CFHR2]
protein stability index (treatment: DMSO): 2.17 ± 0.22 | protein stability index (treatment: MLN4924 1 uM, 8 h): 2.47 ± 0.33

LHLLYLLEKVECTPSQEHLKHQTV [FEM1A]
protein stability index (treatment: DMSO): 2.29 ± 0.43 | protein stability index (treatment: MLN4924 1 uM, 8 h): 2.23 ± 0.26

KKDNHALVRETDELRRNHCFQDFK [ELOA2]
protein stability index (treatment: DMSO): 4.11 ± 0.31 | protein stability index (treatment: MLN4924 1 uM, 8 h): 4.03 ± 0.3

LIQRKKVHVFGDELSLVTLFRCIQ [TNFSF13B]
protein stability index (treatment: DMSO): 2.25 ± 0.67 | protein stability index (treatment: MLN4924 1 uM, 8 h): 2.04 ± 0.34

DRERQPLLDRARGAAAQGQTQTVA [PI4K2A]
protein stability index (treatment: DMSO): 5.22 ± 0.18 | protein stability index (treatment: MLN4924 1 uM, 8 h): 5.13 ± 0.28

TSSTFGLQDGNLRAPHKESTLPRS [CHCHD6]
protein stability index (treatment: DMSO): 4.42 ± 0.34 | protein stability index (treatment: MLN4924 1 uM, 8 h): 4.61 ± 0.14

AAAEVGGGVGGSSRARSASSPRGM [ANKRD17]
protein stability index (treatment: DMSO): 4.82 ± 0.34 | protein stability index (treatment: MLN4924 1 uM, 8 h): 5 ± 0.24

YNPDLKKVVEAHKIVLCAVSHVFM [RHOBTB3]
protein stability index (treatment: DMSO): 2.95 ± 0.57 | protein stability index (treatment: MLN4924 1 uM, 8 h): 2.97 ± 0.26

TDFFKNIMNFIDIVAIIPYFITLG [KCNA1]
protein stability index (treatment: DMSO): 3.22 ± 0.62 | protein stability index (treatment: MLN4924 1 uM, 8 h): 3.6 ± 0.2

GMVTRCIIEVLSNALSKSSAPPIT [CHGB]
protein stability index (treatment: DMSO): 3.07 ± 0.29 | protein stability index (treatment: MLN4924 1 uM, 8 h): 3.08 ± 0.23

IPNAASEEGDEDDWASNKVMFKIG [WEE1]
protein stability index (treatment: DMSO): 4.62 ± 0.13 | protein stability index (treatment: MLN4924 1 uM, 8 h): 4.28 ± 0.3

QTESELQELSEVLELLSAPELKSL [FAN1]
protein stability index (treatment: DMSO): 4.1 ± 0.19 | protein stability index (treatment: MLN4924 1 uM, 8 h): 4.11 ± 0.11

YRVSDVTKAGHSLELIEPLIKFQV [VDR]
protein stability index (treatment: DMSO): 1.99 ± 0.4 | protein stability index (treatment: MLN4924 1 uM, 8 h): 2.12 ± 0.21

NPAPAAPCPLGEPKTQACSGSESP [MYCL]
protein stability index (treatment: DMSO): 5.57 ± 0.23 | protein stability index (treatment: MLN4924 1 uM, 8 h): 5.63 ± 0.15

QIEKTTNREACRDLSGRRLRDVNH [SDE2]
protein stability index (treatment: DMSO): 4.18 ± 0.24 | protein stability index (treatment: MLN4924 1 uM, 8 h): 4.11 ± 0.6

KQWGPLEREPVRGQCLDSTDQLEF [RTN2]
protein stability index (treatment: DMSO): 4.45 ± 0.35 | protein stability index (treatment: MLN4924 1 uM, 8 h): 4.71 ± 0.2

LRFLHENQLTHTDLKPENILFVNS [CLK3]
protein stability index (treatment: DMSO): 2.49 ± 0.23 | protein stability index (treatment: MLN4924 1 uM, 8 h): 2.86 ± 0.36

KFSHSGRYMLTRDYLTVKVWDLNM [PPP2R2C]
protein stability index (treatment: DMSO): 2.35 ± 0.23 | protein stability index (treatment: MLN4924 1 uM, 8 h): 2.33 ± 0.31

AASPELSALEEAFRRFAVHGDARA [TPPP]
protein stability index (treatment: DMSO): 3.73 ± 0.12 | protein stability index (treatment: MLN4924 1 uM, 8 h): 3.74 ± 0.26

SFMPLVIKVTSATSVNLGILTADL [SLC35F2]
protein stability index (treatment: DMSO): 2.7 ± 1 | protein stability index (treatment: MLN4924 1 uM, 8 h): 2.87 ± 0.49

YEFQIPYICPDYQSYFKTIEDFQQ [KRT36]
protein stability index (treatment: DMSO): 2.28 ± 0.3 | protein stability index (treatment: MLN4924 1 uM, 8 h): 2.07 ± 0.3

RVDHGAEIITQSPGRSSVASPRRL [MAP2]
protein stability index (treatment: DMSO): 4.45 ± 0.13 | protein stability index (treatment: MLN4924 1 uM, 8 h): 4.71 ± 0.17

RRSTTDLRGTQFDYERGKGESTED [ZSWIM9]
protein stability index (treatment: DMSO): 5.57 ± 0.17 | protein stability index (treatment: MLN4924 1 uM, 8 h): 5.53 ± 0.15

GGTVKLADFGLARIYSYQMALTPV [CDK4]
protein stability index (treatment: DMSO): 2.36 ± 0.27 | protein stability index (treatment: MLN4924 1 uM, 8 h): 2.17 ± 0.11

QSGRDLQQYQSQAKQLFRKLNEQS [SEC22B]
protein stability index (treatment: DMSO): 3.72 ± 0.29 | protein stability index (treatment: MLN4924 1 uM, 8 h): 3.83 ± 0.27

KNIIHKTSGKRYVYRFVCDLQNLL [ETS2]
protein stability index (treatment: DMSO): 2.96 ± 0.48 | protein stability index (treatment: MLN4924 1 uM, 8 h): 2.69 ± 0.6

GGFGGGVGGGFGGGFGGGDGGLLS [KRT15]
protein stability index (treatment: DMSO): 3.4 ± 0.71 | protein stability index (treatment: MLN4924 1 uM, 8 h): 3.98 ± 0.14

NQGLNVMVWNQNGKSPSITFEYTL [ADAMTSL2]
protein stability index (treatment: DMSO): 3.01 ± 0.3 | protein stability index (treatment: MLN4924 1 uM, 8 h): 2.64 ± 0.53

VAQLEDRRSTTDLRGTQFDYERGK [ZSWIM9]
protein stability index (treatment: DMSO): 5.03 ± 0.18 | protein stability index (treatment: MLN4924 1 uM, 8 h): 5.07 ± 0.24

VARPVRFPREHQFFEDGDVQRHLY [ZNF511]
protein stability index (treatment: DMSO): 3.31 ± 0.17 | protein stability index (treatment: MLN4924 1 uM, 8 h): 3.55 ± 0.38

AMELRHQGGEYLPKPEPPQLVLAY [FEM1A]
protein stability index (treatment: DMSO): 2.32 ± 0.33 | protein stability index (treatment: MLN4924 1 uM, 8 h): 2.38 ± 0.28

TINPSKRITAAEALKHPWISHRST [CAMK2A]
protein stability index (treatment: DMSO): 3.06 ± 0.23 | protein stability index (treatment: MLN4924 1 uM, 8 h): 3.21 ± 0.2

FPELGYSYGGGSASSQHSEGSRSS [DVL3]
protein stability index (treatment: DMSO): 3.39 ± 0.28 | protein stability index (treatment: MLN4924 1 uM, 8 h): 4.03 ± 0.53

FSQETVMKFVPRYSLVLELSDSGA [APMAP]
protein stability index (treatment: DMSO): 2.75 ± 0.71 | protein stability index (treatment: MLN4924 1 uM, 8 h): 2.09 ± 0.27

YEDGEVEEEADSCFGDDEDDSGTE [CDC34]
protein stability index (treatment: DMSO): 5.61 ± 0.16 | protein stability index (treatment: MLN4924 1 uM, 8 h): 5.67 ± 0.12

MSAAQGWDRNRRRGGGAAGAGGGG [KLHDC10]
protein stability index (treatment: DMSO): 4.97 ± 0.27 | protein stability index (treatment: MLN4924 1 uM, 8 h): 4.92 ± 0.25

KSGEEAVTVLEDLEKGLEPEPQVP [ZNF232]
protein stability index (treatment: DMSO): 5.63 ± 0.17 | protein stability index (treatment: MLN4924 1 uM, 8 h): 5.62 ± 0.16

EVSCQCQLHPPRWYSRLQACQWGG
protein stability index (treatment: DMSO): 2.17 ± 0.13 | protein stability index (treatment: MLN4924 1 uM, 8 h): 2.29 ± 0.4

VGAAYASLRRRGASAAARLGCNRQ [TRIM14]
protein stability index (treatment: DMSO): 3.36 ± 0.17 | protein stability index (treatment: MLN4924 1 uM, 8 h): 4.09 ± 0.39

SLSPSPLGSSAASTALERPSFLSQ [FCHO1]
protein stability index (treatment: DMSO): 4.09 ± 0.25 | protein stability index (treatment: MLN4924 1 uM, 8 h): 3.98 ± 0.19

VCLPRSEDDDCDDDDDDDAQILPS [DRICH1]
protein stability index (treatment: DMSO): 5.38 ± 0.22 | protein stability index (treatment: MLN4924 1 uM, 8 h): 5.14 ± 0.09

QFTSSSSMKGSCGIGGGIGGGSSR [KRT16]
protein stability index (treatment: DMSO): 3.29 ± 0.26 | protein stability index (treatment: MLN4924 1 uM, 8 h): 3.48 ± 0.32

LASRNTLFNLSNFLDKSGSHGYDM [SNAP91]
protein stability index (treatment: DMSO): 2.2 ± 0.26 | protein stability index (treatment: MLN4924 1 uM, 8 h): 2.61 ± 0.16

GFPRVAPEDEVIVNQYVIRPGPSA [RNF208]
protein stability index (treatment: DMSO): 3.66 ± 0.25 | protein stability index (treatment: MLN4924 1 uM, 8 h): 3.67 ± 0.13

SKLSRKYVKAKKSIDKDEEFAGSS [FAN1]
protein stability index (treatment: DMSO): 4.84 ± 0.14 | protein stability index (treatment: MLN4924 1 uM, 8 h): 4.64 ± 0.31

DDAGTSGGPSSPPSDPPAMSPGPL [C2CD2L]
protein stability index (treatment: DMSO): 5.38 ± 0.38 | protein stability index (treatment: MLN4924 1 uM, 8 h): 5.37 ± 0.32

GDLAYRRQEYQKALQEYSSISEKL [C8orf76]
protein stability index (treatment: DMSO): 4.14 ± 0.25 | protein stability index (treatment: MLN4924 1 uM, 8 h): 4.16 ± 0.2

APDLVLNAEMVQQTTYLEDRPMFM [LOXL2]
protein stability index (treatment: DMSO): 3.25 ± 0.18 | protein stability index (treatment: MLN4924 1 uM, 8 h): 3.43 ± 0.17

NSVTAGDYSRPLHISTFINELDSG [TSN]
protein stability index (treatment: DMSO): 3.54 ± 0.19 | protein stability index (treatment: MLN4924 1 uM, 8 h): 3.71 ± 0.18

RQNVPRKVPNHYIAIPEWFLSENA [CPXM2]
protein stability index (treatment: DMSO): 2.82 ± 0.23 | protein stability index (treatment: MLN4924 1 uM, 8 h): 3.05 ± 0.5

CGTPLRKSNFRVQLFEDPTVDKEV [MNAT1]
protein stability index (treatment: DMSO): 3.84 ± 0.09 | protein stability index (treatment: MLN4924 1 uM, 8 h): 3.75 ± 0.16

FDTLATVGTGTFGRVHLVKEKTAK [PRKX]
protein stability index (treatment: DMSO): 4.66 ± 0.22 | protein stability index (treatment: MLN4924 1 uM, 8 h): 4.54 ± 0.41

SAPHLENSGHTIFNDPFFIVETVC [KCNA4]
protein stability index (treatment: DMSO): 2.43 ± 0.23 | protein stability index (treatment: MLN4924 1 uM, 8 h): 2.46 ± 0.38

MFRSKRSGLVRRLWRSRVVPDREE [SMAD6]
protein stability index (treatment: DMSO): 2.67 ± 0.17 | protein stability index (treatment: MLN4924 1 uM, 8 h): 3.24 ± 0.5

HHREGLLAIFKSGGIPALVKMLGS [CTNNB1]
protein stability index (treatment: DMSO): 2.82 ± 0.39 | protein stability index (treatment: MLN4924 1 uM, 8 h): 2.71 ± 0.64

Reference: the supplement of paper PMC10567573
